Data taken from the DeepSol protein solubility set.

Experiment: soluble on expression in E. coli; label from the status in PepcDB or PDB records

Sequence | soluble on expression in E. coli
MSKLCKEFSLSATVKNMSRFVDGEEYYTDTEERFNIPWRMFIRKDSGYFDLGLVCEKDSWENREWSIETDYKMKFVSHNGDSLTDSEHFTFENSNKSDVCLMKPWDLLESDYVVDDSIVVEAYVKIIKMTDTPCDEDENIETFLLSNTVKNISSIEEGDDYYTEIATRHNVPWRMQIKRNNGFFELYLRCEKEEQPEWGWKIELDYDLRLVSLNGQSLSLTDSGSFSKPFCEGFEKFMRWNIMEENYIVKDSIIIEARGKITKMIGCDDDSSSDDGEDESSKSHSESDTSSDNLEDEFSECVINVGGQN | not soluble
MGSDKIHHHHHHMILDERVNSNFDQLNDNDIQIAHYVNTHIDVCKNMKIQDLASQTHASNATIHRFTRKLGFDGYSDFKSFLKFEDSKNHQLPSDSMEQFKQEIENTFNYLERIDYRLLTHKMHHATTIYLYGTGRAQMNVAEEAQRILLTMHKNIILLHDVHELKMVLNKTIPEDLFFIISLSGETHQLKEVTQLLQLRQKYFISVTTMKDNTLAQQADYNVYVSSNTFYLNDGTDYSSFISYHIFFETLLRKYNEYKENHELT | not soluble
MSLLEQLDKNIAASGGLIVSCQPVPGSPLDKPEIVAAMALAAEQAGAVAVRIEGIDNLRMTRSLVSVPIIGIIKRDLDESPVRITPFLDDVDALAQAGAAIIAVDGTARQRPVAVEALLARIHHHHLLAMADCSSVDDGLACQRLGADIIGTTMSGYTTPDTPEEPDLPLVKALHDAGCRVIAEGRYNSPALAAEAIRYGAWAVTVGSAITRLEHICGWYNDALKKAAS | not soluble
MGSDKIHHHHHHMDYRKIIKEIGRGKNHARDLDLDTARGLYTRMLNGDVPDLEMGSILMALRIKGEGEAEMLGFYEAMQNHTIKLTPPADRPLPVVIPSYNGARKQANLTPLLAILLHKLGFPVVVHGVSEDPTRVLTETIFELMGIIPTLHGGQAQAKLDGRQPVFIPVSALCPPLEKQLAMRWRMGVRNSAHSLAKLATPFAEDAALRLSSVSHPEYVPRVATFFSRIGGRALLMHGTEGEVYANPQRCPQISLIDSRGVQVLHERQSDTYDEPLSLPATKDPEITARWIERCLAGHEPVPQSLKTQMACCLVATGEAATLEDGLARVEQAFSE | not soluble
MSHAVARLRAERLARSNKPFIARGSRAERCPDCRVIATHCLCAWKPRVQADAGVCLLMHDTEPLKPTNTGWLIADLIEDTWAFGWLRTAVDERLLALLDDPRWQPYIVFPGEFVAQERVVSEVVREPGKRPLFILLDATWTEARKMFRKSPYLDRFPVLSLQAEQMSRYRLRRSKRDDHFCTAEVAAMCLDLAGDGQASQALDAYLDVFSLHYLSGKRRLPLDEQDDTHQRLHTFLLEHHHHHH | soluble
MRSSQAIDFERIPEMEDKWRKEITAMTVTLQDKRKAIQNDEILRGVHPKSHGCLDAEFTVNRDIAPQFQVGLFAQPGKCFRARIRYSNADVLKRADLEKGQDATGARFLNHGSRGMAIKVLDVGAPVLLEDGCARNQDFLMVNTPEFAFRNVRDYLRLTKALCASADGADPLLFFLPGELLKRGMMDMSGSLLPAPAGEPPQNAGLRALFEANRAFFDDFDAEDMQGVISAAGVVGKIQSTPVRNPLFAPYFSAASFRFGKDRVMRFSVVPLQSEEMAADMASDAFEDFSDDYLSQALALSVATNEPIKLSFRIQIAHEEDIVNDIDGMIENAAKTWDEDQFSHTEVAQITINPPCPSAELVDTCKPLLFTPWHAVVDFEPLGGINRLRKPVYSTSAAFRRSVLEHHHHHH | not soluble
SAQFINGTINSWFGNDTHEALERSLNLSKSALNLAADNALGNAVPVQIDLIGAASLPGDMGRVLEHYAGSGFAQLALYNAASGKIEKSINPHKLDQPFPGKARWEKIQRAGSVRDLESIGGVLYAQGWLSAGTHNGRDYALFFRQPVPKGVAEDAVLIEKARAKYAELSYSKKGLQT | not soluble
MGSDKIHHHHHHMQDCDVRIFYIFKSLYDSGSATFVSQQHSVSPSKVSRYIAEMREVYNDSLFIRRKTHFVPTKKAREIYPKICEIIELIEGLSANRHELEVKKECVIAVPATLCVGLPEHLNRVIKQEGLDISLKVMSSHREICTKVINGEICIAITNRACTQTMDCNPKHSNLLHVEPISVGEHVYVVSAATGAIWQEKISLDNIAKYPFVVTQVSGFNDEKDPFEVYCEQRGLALNVFLKTQNLASMIEALMSENTISFIGPNSAAAFIAKVPSLRVEKLENCEYQRLHEAMHKPTYSMIYLKRNIDVIPPLIKSEVLRFISDSVCDF | not soluble
MALLCYNRGCGQRFDPETNSDDACTYHPGVPVFHDALKGWSCCKRRTTDFSDFLSIVGCTKGRHNSEKPPEPVKPEVKTTEKKELCELKPKFQEHIIQAPKPVEAIKRPSPDEPMTNLELKISASLKQALDKLKLSSGNEENKKEEDNDEIKIGTSCKNGGCSKTYQGLESLEEVCVYHSGVPIFHEGMKYWSCCRRKTSDFNTFLAQEGCTKGKHMWTKKDAGKKVVPCRHDLHQTGGEVTISVYAKNSLPELSRVEANSTLLNVIIVFEGEKEFDQNVKLWGVIDVKRSYVTMTATKIEITMRKAEPMQWASLELPAAKKQEKQKDDTTD | soluble
MGSSHHHHHHSSGLVPRGSHMASMTGGQQMGRGSMNIAVVTDSTAYIPKEMREQHQIHMIPLQVVFREETYREEIELDWKSFYEEVKKHNELPTTSQPPIGELVALYEELGKSYDAVISIHLSSGISGTFSSAAAADSMVDNIDVYPFDSEISCLAQGFYALKAAELIKNGASSPEDIIKELEEMKKTVRAYFMVDDLAHLQRGGRLSSAQAFIGSLLKVKPILHFDNKVIVPFEKIRTRKKAISRIYELLDEDASKGLPMRAAVIHANREEEAAKIIEELSAKYPHVEFYNSYFGAVIGTHLGEGALGICWCFK | soluble
MSLLASLGGLVSCAAKVHFKEEGNAMNELIANHDFDFRQLVTAAEGQPVTDTFQIAKAFGKRHADVLRALKNCHCSEDFRRAHFCVSEKINNLGIFDKKQIYYRMDFSGFVMLVMGFNGAKADAVKEAYINAFNWMSAELRKYSESYEAERNAIMLEYMKEKDVASMSGRLLNRWGKIKKPQLLARIGRLEQHGQTVIPGLTNEGHHHHHH | not soluble
MQKWIGIMGIIFILTGCKMSEAPTNLMEAPANEKWINELKEQIDKDLPVNYRLLTPMSNKDKQMIWSMDFKQDNKKEAVIFYKLPNADHSVYLAVYEKNGNGWKTKSTHKFNGGDVDIVEVGDFTGNGKRELLIGISVDRESLKHVMYVFSEENEDMREIYNRNYTKLFIDDLNKNGLKDLSLVTYEKDEKLIVEFIEQFKTLSEASFDPFINSIQRIQMGRISKSLKAIVIDAGVGAHSGITYVAKFDENHYEVLPIDGKEDLFNEYVVESKDVNEDGIIEFVRTVRPKGWEDKPHGDSPLFERYIQWSESGIKPIEERYIDIEKGYYVKIPKELIGKITISDEQKESNSQKFLETSTNETWLEVHIFKRKEWFGIKGYSAAVKTASHVYAVPKQPHFEKVKAYVKPLADYQQE | not soluble
PVGYFTMYRFNFKYPPFDNKKIRQAAMYAIGQEDVMKALVGNPKYWQTCASLWGCGTPFETDIGKDMVVPSNIEKARALLKEAGYDNTPILVMHATDVGTLSAQPVVMAQALRKAGFNVNLAAMDWQSVATRRASKAAPAQGGWNIHNTNWYATDIMDPVRSAPAAANGDNAWFGWPDIPEIEALRTRFALSSDPAEQKKLAEEAQRIGIDEGLYVPLGQMSVPTVYTTKLSGLVHAPVFAFWNVKKAP | not soluble
SDRKSDRELLYFRKKLQRKLGPISIATPEALLNAHEMLRDKMHYFIEQTQCSVGIFIHRGFKHAGKVLLLMENEGDEELLAYARSLARNNGSVLDVLPETDGLPPTLSMGENRLKAGLPSTINISSYHFMLVSYRYWLRFAGECPSVIEHLPSTIIIHHRNDRSSTLKAAMI | not soluble
MSLRDKQKIKTKLIPEKDEGEGKYRIGLYIRDSAAGIGTMTFYEPKTKKYGALGHVISDMDTKKPIVVENGEIVKSTVTSIEKGTGGNPGEKLARFSSERKTIGDINRNSPFGIFGTLHQPIQNNISDQALPVAFSTEVKKGPAEILTVIDDDKVEKFDIEIVSTTPQKFPATKGMVLKITDPRLLKETGGIVQGMSGSPIIQNGKVIGAVTHVFVNDPTSGYGVHIEWMLSEAGIDIYGKEKASEGHHHHHH | soluble
MTAQLQSESTSKIVLVTGGAGYIGSHTVVELIENGYDCVVADNLSNSTYDSVARLEVLTKHHIPFYEVDLCDRKGLEKVFKEYKIDSVIHFAGLKAVGESTQIPLRYYHNNILGTVVLLELMQQYNVSKFVFSSSATVYGDATRFPNMIPIPEECPLGPTNPYGHTKYAIENILNDLYNSDKKSWKFAILRYFNPIGAHPSGLIGEDPLGIPNNLLPYMAQVAVGRREKLYIFGDDYDSRDGTPIRDYIHVVDLAKGHIAALQYLEAYNENEGLCREWNLGSGKGSTVFEVYHAFCKASGIDLPYKVTGRRAGDVLNLTAKPDRAKRELKWQTELQVEDSCKDLWKWTTENPFGYQLRGVEARFSAEDMRYDARFVTIGAGTRFQATFANLGASIVDLKVNGQSVVLGYENEEGYLNPDSAYIGATIGRYANRISKGKFSLCNKDYQLTVNNGVNANHSSIGSFHRKRFLGPIIQNPSKDVFTAEYMLIDNEKDTEFPGDLLVTIQYTVNVAQKSLEIVYKGKLTAGEATPINLTNHSYFNLNKPYGDTIEGTEIMVRSKKSVDVDKNMIPTGNIVDREIATFNSTKPTVLGPKNPQFDCCFVVDENAKPSQINTLNNELTLIVKAFHPDSNITLEVLSTEPTYQFYTGDFLSAGYEARQGFAIEPGRYIDAINQENWKDCVTLKNGETYGSKIVYRFS | soluble
GPLGSMADSQDPLHERTRRLLSDYIFFCAREPDTPEPPPTSVEAALLRSVTRQIQQEHQEFFSSFCESRGNRLELVKQMADKLLSKDQDFSWSQLVMLLAFAGTLMNQGPYMAVKQKRDLGNRVIVTRDCCLIVNFLYNLLMGRRHRARLEALGGWDGFCRFFKNPLPLG | soluble
MSLKLVGIIGSIADESYNRKLMLYIASHFKETIDIEILDIRDVPMFRVGMEMGPAVEYLNKKISAADGVIIATPEHNHTTTAALKSVIEWLSSSVHPFADKPVLLVGASYFEQGSGRAQLDLRQILESPGVNALVMPKDEFLLGNVKSAFDENGNLKEARTVGFLESVMGNFLKWIKVLKAMKKNNDVKGDWESEDLTASQEIDTTVKGVDMKAEDWVEQAAAKTNAVEGDTYVKLDRGLLTVNQLNWFLNTMPVELTFADDNNQFIYYNRMDENPKDMLAPRQPKQVGDPLESVHPERALKGVKHVVHTLRTGETDLVSMPVPFINKVNEKHVMHYYKAMHDEDGRYRGINEWVVDIWPVVESYLKMTGQKLVADENAKVDEGHHHHHH | soluble
MLLGMSLEELTTVALRMGMPRFAGKQLAEWIYVRRATDFAEMTNISQANRQKLAEIYDLGRYPWSDVQCSVDGTKKYLFPVGEGRFVESVLIPEGDRATLCISSQVGCKMDCLFCMTGKQGWNGNLSAAEILNQIFSVDEAAELTNLVYMGMGEPLDNTDEVLRSIEALTEPWGMGWSPKRITVSTIGAKGLERFLAESRCHLAVSLHSPFPEERRKLMPGEKAFPIMQTLDRIRAYDFSGQRRVSFEYIVFDGLNDDMRHADELAAILRGIPCRINLIRFHKIPAVSLRSSDTARMEAFRKRMESHGFTCTIRASRGEDIFAACGMLSTSKAESSEEKSS | not soluble
MSLKTALDIIEHAEEHLIEKIAENMHTFGMPSTVGRVLGIIYMNRKPMTLSELSEATGMSKTRMSQVVREMIDANIAEKVFEKGVRKDLYDVEQDYYQTFISLFAANWTKVVSKNKVLYKKLNRELSDLLQRDGLTPEAEEKVNQLLNELKEWLHYYDWLSRLIEFFESEEVFRYVPKTKECSSLKEGGSHHHHHH | soluble
MHHHHHHGHNSNLQDILAANAKWASQMNNIQPTLFPDHNAKGQSPHTLFIGCSDSRYNENCLGVLPGEVFTWKNVANICHSEDLTLKATLEFAIICLKVNKVIICGHTDCGGIKTCLTNQREALPKVNCSHLYKYLDDIDTMYHEESQNLIHLKTQREKSHYLSHCNVKRQFNRIIENPTVQTAVQNGELQVYGLLYNVEDGLLQTVSTYTKVTPK | soluble
